According to US20250002601A1 (INNATE PHARMA, published 2025):
Substitutions are numbered along the chain they refer to. In names and notes the source's numbering stands.

B1: CD20-1-T5-NKCE4-v3 (bispecific antibody)
light: not shown
heavy: not shown
chain: DIQMTQSPSSLSASVGDRVTITCRASQDISNYLNWYQQKPGKAPKLLIYYTSRLHSGVPSRFSGSGSGTDFTFTISSLQPEDIATYFCQQGNTRPWTFGGGTKVEIKASTKGPSVFPLAPSSKSTSGGTAALGCLVKDYFPEPVTVSWNSGALTSGVHTFPAVLQSSGLYSLSSVVTVPSSSLGTQTYICNVNHKPSNTKVDKRVEPKSCDKTHSGSSSSGSSSSGSSSSTKKTQLQLEHLLLDLQMILNGINNYKNPKLTAMLAKKFYMPKKATELKHLQCLEEELKPLEEVLNLAQSKNFHLRPRDLISNINVIVLELKGSETTFMCEYADETATIVEFLNRWITFCQSIISTLT
B2: CD20-4-T5-NKCE4-v3 (bispecific antibody)
light: not shown
heavy: not shown
chain: B1 chain
B3: CD20-2-T5-NKCE4-v3 (bispecific antibody)
light: not shown
heavy: not shown
chain: B1 chain
B4: CD20-3-T5-NKCE4-v3 (bispecific antibody)
light: not shown
heavy: not shown
chain: B1 chain
B5: CD20-2-T5A-NKCE4-v2 (bispecific antibody, human IgG1, kappa)
chain 1: not shown
chain 2: not shown
chain 3: B1 chain
B6: CD20-2-T6AB3-NKCE4-v2A (bispecific antibody, human IgG1, kappa)
chain 1: not shown
chain 2: EVQLVESGGGLVQPDRSLRLSCAASGFTFHDYAMHWVRQAPGKGLEWVSTISWNSGTIGYADSVKGRFTISRDNAKNSLYLQMNSLRAEDTALYYCAKDIQYGNYYYGMDVWGQGTTVTVSSASTKGPSVFPLAPSSKSTSGGTAALGCLVKDYFPEPVTVSWNSGALTSGVHTFPAVLQSSGLYSLSSVVTVPSSSLGTQTYICNVNHKPSNTKVDKRVEPKSCDKTHTCPPCPAPEAEGAPSVFLFPPKPKDTLMISRTPEVTCVVVDVSHEDPEVKFNWYVDGVEVHNAKTKPREEQYNSTYRVVSVLTVLHQDWLNGKEYKCKVSNKALPSSIEKTISKAKGQPREPQVYTLPPSREEMTKNQVSLTCLVKGFYPSDIAVEWESNGQPENNYKTTPPVLDSDGSFFLYSKLTVDKSRWQQGNVFSCSVMHEALHNHYTQKSLSLSPGSTGSQVQLVQSGAEVKKPGSSVKVSCKASGYTFSDYVINWVRQAPGQGLEWMGEIYPGSGTNYYNEKFKAKATITADKSTSTAYMELSSLRSEDTAVYYCARRGRYGLYAMDYWGQGTTVTVSSRTVAAPSVFIFPPSDEQLKSGTASVVCLLNNFYPREAKVQWKVDNALQSGNSQESVTEQDSKDSTYSLSSTLTLSKADYEKHKVYACEVTHQGLSSPVTKSFNRGEC
chain 3: B1 chain with A265T, C349A

Experiments:
[1] = target: IL-2 receptor on cells of human PBMC (NK cells, CD4 T cells, CD8 T cells, Tregs); experiment: cell-based or functional assay
HuCD122-His = target: T1, HuCD122-His (human, UniProt P14784 27-239); experiment: SPR (Biacore), HuCD122-His captured on anti-His CM5 chip, analyte 31.25 nM to 1 µM, steady-state fit
T1 construct: Captured on an anti-His CM5 chip; also called interleukin 2 receptor beta; IL2RP
T1 sequence (looked up): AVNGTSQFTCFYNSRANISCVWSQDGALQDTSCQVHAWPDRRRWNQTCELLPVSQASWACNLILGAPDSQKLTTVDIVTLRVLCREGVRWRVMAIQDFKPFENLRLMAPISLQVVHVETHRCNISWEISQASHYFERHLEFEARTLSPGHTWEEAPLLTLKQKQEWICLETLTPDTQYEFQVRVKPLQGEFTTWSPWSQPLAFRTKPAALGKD
Procedure: Briefly, a biacore instrument was used with a CM5 chip comprising an immobilized anti-His antibody. Ligand HuCD122-His was injected at a dilution of […] to be captured on the chip. Proteins CD20-2-T5A-NKCE4-v2, CD20-2-T6AB3-NKCE4-v2A, CD20-2-T13A-NKCE4-v2A was then injected during 120 s with a flow of 10 μL/min, at a concentrations range from 31.25 nM to 1 μM. The interaction between these proteins and HuCD122-His was studied with a dissociation time of 600 s. The chip was then regenerated with NaOH 10 mM at a flow of 40 μL/min during 10 sec.
Date has been analysed under the steady-state model, that seemed to be the most accurate regarding sensograms appearance.

Row | Binder | % of pSTAT5+ cells among NK cells [1] [log] | Kd (HuCD122-His) [nM]
1 | B1 | ~1 | –
2 | B2 | ~1 | –
3 | B3 | ~1 | –
4 | B4 | ~1 | –
5 | B5 | – | 1810
6 | B6 | – | 2840
